Laboratory results: patent EP3344659B1 (Immunwork Inc., dated 2025)

Target: T1, human fibrinogen (human, UniProt P02671 20-629; P02675 31-491; P02679 27-437, limits assumed)
T1 construct: Bought from Sigma and coated on 96-well plates; also called fibrinogen plate
T1 sequence (looked up) 1: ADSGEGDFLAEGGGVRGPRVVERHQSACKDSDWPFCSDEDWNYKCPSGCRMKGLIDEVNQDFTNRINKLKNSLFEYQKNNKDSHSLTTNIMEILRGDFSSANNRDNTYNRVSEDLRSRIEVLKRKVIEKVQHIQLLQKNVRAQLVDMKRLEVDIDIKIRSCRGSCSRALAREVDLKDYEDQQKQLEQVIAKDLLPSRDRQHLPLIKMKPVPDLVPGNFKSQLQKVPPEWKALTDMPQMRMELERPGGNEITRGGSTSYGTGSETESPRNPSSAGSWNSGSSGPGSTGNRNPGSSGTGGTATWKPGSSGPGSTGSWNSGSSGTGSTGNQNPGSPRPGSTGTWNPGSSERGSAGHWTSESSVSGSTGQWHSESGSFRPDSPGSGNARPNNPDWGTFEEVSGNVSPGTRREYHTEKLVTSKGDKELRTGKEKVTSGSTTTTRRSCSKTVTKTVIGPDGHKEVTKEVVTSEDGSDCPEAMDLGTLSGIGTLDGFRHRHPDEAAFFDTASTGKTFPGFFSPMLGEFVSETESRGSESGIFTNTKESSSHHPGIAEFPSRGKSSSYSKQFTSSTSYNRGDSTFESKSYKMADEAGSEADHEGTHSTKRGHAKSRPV
T1 sequence (looked up) 2: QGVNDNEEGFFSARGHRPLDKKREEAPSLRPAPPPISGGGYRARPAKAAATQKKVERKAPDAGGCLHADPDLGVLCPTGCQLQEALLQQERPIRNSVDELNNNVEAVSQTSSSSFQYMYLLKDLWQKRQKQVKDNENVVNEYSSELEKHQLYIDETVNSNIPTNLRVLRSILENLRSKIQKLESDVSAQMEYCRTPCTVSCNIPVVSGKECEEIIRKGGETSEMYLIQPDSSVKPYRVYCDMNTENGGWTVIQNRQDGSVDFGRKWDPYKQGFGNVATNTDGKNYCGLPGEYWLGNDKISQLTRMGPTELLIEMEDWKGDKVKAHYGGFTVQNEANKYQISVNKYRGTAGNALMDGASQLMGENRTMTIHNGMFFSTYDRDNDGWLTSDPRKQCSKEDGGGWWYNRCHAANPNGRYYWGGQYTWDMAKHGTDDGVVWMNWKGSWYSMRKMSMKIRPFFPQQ
T1 sequence (looked up) 3: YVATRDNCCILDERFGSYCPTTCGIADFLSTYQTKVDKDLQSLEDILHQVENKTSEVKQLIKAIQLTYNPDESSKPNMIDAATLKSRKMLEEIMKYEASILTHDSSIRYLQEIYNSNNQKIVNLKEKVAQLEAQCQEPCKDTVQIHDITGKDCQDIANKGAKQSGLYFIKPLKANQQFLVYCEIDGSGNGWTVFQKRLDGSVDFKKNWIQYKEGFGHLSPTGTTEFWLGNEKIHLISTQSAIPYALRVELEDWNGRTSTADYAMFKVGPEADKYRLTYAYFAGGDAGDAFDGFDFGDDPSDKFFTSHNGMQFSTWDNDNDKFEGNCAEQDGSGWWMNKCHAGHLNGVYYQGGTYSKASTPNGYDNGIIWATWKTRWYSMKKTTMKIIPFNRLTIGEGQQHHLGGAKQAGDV
Assay: ELISA on fibrinogen-coated plate (1 µg/well)

binding result: no binding
B1: 102-10 scFv specific for human fibrin (scFv)
scFv: DIQMTQSPSSLSASLGGKVTITCKASQDINKYIAWFQHKPGKGPRLLIHYTSTLQPGIPSRFSGSGSGRDYSFSISNLEPEDLATYYCLQYDNLTWTFGGGTKLEIKRGSTSGSGKPGSGEGSTKGQIQLVQSGPELKKPGETVKISCKASGYTFTNYGMNWVKQAPGKGLKWMGWINTYTGEATYADDFKGRFAFSLETSANTAYVQINNLKNEDTATYFCARLMDYWGQGTSVTVSSGGGGSGGGGSC
